Experimental findings from paper PMC5773555, “Structural basis of SALM5-induced PTPδ dimerization for synaptic differentiation” (Nature Communications, 2018) are described below.

Sequences and labels used below:
B4: human SALM5 LRR-Ig (wild type) (domain or fragment, UniProt Q96NI6 18-374, looked up)
chain: QICPKRCVCQILSPNLATLCAKKGLLFVPPNIDRRTVELRLADNFVTNIKRKDFANMTSLVDLTLSRNTISFITPHAFADLRNLRALHLNSNRLTKITNDMFSGLSNLHHLILNNNQLTLISSTAFDDVFALEELDLSYNNLETIPWDAVEKMVSLHTLSLDHNMIDNIPKGTFSHLHKMTRLDVTSNKLQKLPPDPLFQRAQVLATSGIISPSTFALSFGGNPLHCNCELLWLRRLSREDDLETCASPPLLTGRYFWSIPEEEFLCEPPLITRHTHEMRVLEGQRATLRCKARGDPEPAIHWISPEGKLISNATRSLVYDNGTLDILITTVKDTGAFTCIASNPAGEATQIVDLHI
modifications: N-linked glycans at N73, N330 and N339
notes: SALM5, human, LRR and Ig domains, residues 18-374; Glycans trimmed with Endo H only for crystallization; also called SALM5 LRR-Ig WT; WT; source: BacMam baculovirus-transduced HEK293 GnTI- cells, secreted, purified (Ni-NTA, gel filtration); not shown: His7, C-terminal, kept

The target of data set [1] is B4. Nature of the data set: SPR; Biacore T200, 25 °C; His-tagged SALM5 LRR-Ig immobilised on CM5; His-tagged PTPδ Ig1–3 variants as analytes 2.74-6000 nM; 10 mM HEPES pH 7.4, 150 mM NaCl, 3 mM EDTA, 0.05% P20; 1:1 Langmuir model. To be noted: both partners purified. (In general: Surface plasmon resonance follows binding to a sensor surface in real time, without labels.)

Data set [2] deals with the molecule itself. The experiment in a line: crystal structure; SALM5 LRR-Ig in complex with PTPδ Ig1–3 (MeA^−), Endo H trimmed; 3.73 Å; 0.76 M potassium sodium tartrate, 0.1 M MES pH 6.0; molecular replacement.
The next data set addresses T1, human SALM5 LRR-Ig L327N (human, UniProt Q96NI6 18-374, L327N, introduced N-linked glycan wedge GlcNAc2Man5 (confirmed by mass spectrometry)).
T1 construct: SALM5, human, LRR and Ig domains, residues 18-374, with L327N; source: BacMam baculovirus-transduced HEK293 GnTI- cells, secreted, purified (Ni-NTA, gel filtration); not shown: His7, C-terminal, kept
T1 sequence (looked up): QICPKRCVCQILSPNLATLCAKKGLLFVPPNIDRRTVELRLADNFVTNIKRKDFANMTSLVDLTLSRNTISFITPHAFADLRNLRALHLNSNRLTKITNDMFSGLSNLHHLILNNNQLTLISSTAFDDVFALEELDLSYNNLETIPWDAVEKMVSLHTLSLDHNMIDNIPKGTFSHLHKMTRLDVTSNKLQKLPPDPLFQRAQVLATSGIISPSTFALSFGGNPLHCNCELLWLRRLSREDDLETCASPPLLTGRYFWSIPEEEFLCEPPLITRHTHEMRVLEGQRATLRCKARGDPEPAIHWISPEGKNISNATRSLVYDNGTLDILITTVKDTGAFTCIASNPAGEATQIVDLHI
The experiment in a line: SPR; Biacore T200, 25 °C; Fc-tagged PTPδ Ig1–3 (MeA^−) amine-coupled to CM5 (about 500 RU); SALM5 LRR-Ig analytes 23.43-1500 nM; 10 mM HEPES pH 7.4, 150 mM NaCl, 3 mM EDTA, 0.05% P20; 1:1 Langmuir model. Particulars: both partners purified.

For data set [3], the target named is B4. Described as above. Particulars: both partners purified.
Data set [4] concerns the target T2, human SALM5 LRR-Ig R110N/E160S (human, UniProt Q96NI6 18-374, R110N | E160S, N-linked glycans added at residues R110 and N158 (glycan wedge, shown by mass spectrometry)).
T2 construct: SALM5, human, LRR and Ig domains, residues 18-374, with R110N and E160S; also called monomeric SALM5 R110N/E160S mutant; source: BacMam baculovirus-transduced HEK293 GnTI- cells, secreted, purified (Ni-NTA, gel filtration)
T2 sequence (looked up): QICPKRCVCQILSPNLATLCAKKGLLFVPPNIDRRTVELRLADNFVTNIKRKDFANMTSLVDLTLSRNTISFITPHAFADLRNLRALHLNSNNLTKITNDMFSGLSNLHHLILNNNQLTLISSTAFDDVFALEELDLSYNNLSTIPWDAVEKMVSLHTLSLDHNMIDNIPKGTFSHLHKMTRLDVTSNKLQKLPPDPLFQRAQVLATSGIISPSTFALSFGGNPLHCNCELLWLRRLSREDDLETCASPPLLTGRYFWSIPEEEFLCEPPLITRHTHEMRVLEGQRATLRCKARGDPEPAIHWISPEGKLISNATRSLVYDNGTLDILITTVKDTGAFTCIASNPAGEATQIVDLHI
Nature of the data set: SEC; purified SALM5 and PTPδ mixed, 1 h at 4 °C, Superdex 200 Increase in HBS (10 mM HEPES pH 7.5, 500 mM NaCl). To be noted: both partners purified. In general terms: SEC sorts molecules by how far they enter the pores of the column.

B1: human PTPδ Ig1–3 (MeA^−/MeB^−) (domain or fragment, UniProt P23468 21-320, looked up)
chain: ETPPRFTRTPVDQTGVSGGVASFICQATGDPRPKIVWNKKGKKVSNQRFEVIEFDDGSGSVLRIQPLRTPRDEAIYECVASNNVGEISVSTRLTVLREDQIPRGFPTIDMGPQLKVVERTRTATMLCAASGNPDPEITWFKDFLPVDTSNNNGRIKQLRSGALQIEQSEESDQGKYECVATNSAGTRYSAPANLYVRVRRVPPRFSIPPTNHEIMPGGSVNITCVAVGSPMPYVKWMLGAEDLTPEDDMPIGRNVLELNDVRQSANYTCVAMSTLGVIEAIAQITVK
notes: PTPδ, human, Ig domains 1-3, residues 21-320 with both residues 181-189 (MeA) and 227-230 (MeB) deleted; Splice code variant lacking mini exons A and B; source: BacMam baculovirus-transduced HEK293 GnTI- cells, secreted, purified (Ni-NTA, gel filtration); not shown: His7, C-terminal, kept
One may read the Kd as the equilibrium constant for the complex coming apart. The low end stands for tighter binding, the high end for weaker binding. In data set [1], B1 displayed a Kd of 1870 nM.

B2: human PTPδ Ig1–3 (MeB^−) (domain or fragment, UniProt P23468 21-320, looked up)
chain: ETPPRFTRTPVDQTGVSGGVASFICQATGDPRPKIVWNKKGKKVSNQRFEVIEFDDGSGSVLRIQPLRTPRDEAIYECVASNNVGEISVSTRLTVLREDQIPRGFPTIDMGPQLKVVERTRTATMLCAASGNPDPEITWFKDFLPVDTSNNNGRIKQLRSESIGGTPIRGALQIEQSEESDQGKYECVATNSAGTRYSAPANLYVRVRRVPPRFSIPPTNHEIMPGGSVNITCVAVGSPMPYVKWMLGAEDLTPEDDMPIGRNVLELNDVRQSANYTCVAMSTLGVIEAIAQITVK
notes: PTPδ, human, Ig domains 1-3, residues 21-320 with the MeB splice insert ELRE 227-230 deleted; Splice code variant lacking mini exon B; also called MeA^+/MeB^−; source: BacMam baculovirus-transduced HEK293 GnTI- cells, secreted, purified (Ni-NTA, gel filtration); not shown: His7, C-terminal, kept
For B2, binding in data set [1] was characterised by a dissociation constant (Kd) of 1780 nM.

B3: human PTPδ Ig1–3 WT (domain or fragment, UniProt P23468 21-320, looked up)
chain: ETPPRFTRTPVDQTGVSGGVASFICQATGDPRPKIVWNKKGKKVSNQRFEVIEFDDGSGSVLRIQPLRTPRDEAIYECVASNNVGEISVSTRLTVLREDQIPRGFPTIDMGPQLKVVERTRTATMLCAASGNPDPEITWFKDFLPVDTSNNNGRIKQLRSESIGGTPIRGALQIEQSEESDQGKYECVATNSAGTRYSAPANLYVRELREVRRVPPRFSIPPTNHEIMPGGSVNITCVAVGSPMPYVKWMLGAEDLTPEDDMPIGRNVLELNDVRQSANYTCVAMSTLGVIEAIAQITVK
notes: PTPδ, human, Ig domains 1-3 with MeA and MeB remained; residues 21-320 as stated for its variants; also called MeA^+/MeB^+; source: BacMam baculovirus-transduced HEK293 GnTI- cells, secreted, purified (Ni-NTA, gel filtration); not shown: His7, C-terminal, kept
As for B3, in data set [1], the Kd turned out to be 66 nM.
As usually defined, the stoichiometry N is the number of molecules, sites or subunits per partner or assembly. Consider B4, for which the “stoichiometry N” value in data set [2] was 2.

B5: Fc-tagged human PTPδ Ig1–3 (MeA^−) (Fc fusion, UniProt P23468 21-320, looked up)
chain: ETPPRFTRTPVDQTGVSGGVASFICQATGDPRPKIVWNKKGKKVSNQRFEVIEFDDGSGSVLRIQPLRTPRDEAIYECVASNNVGEISVSTRLTVLREDQIPRGFPTIDMGPQLKVVERTRTATMLCAASGNPDPEITWFKDFLPVDTSNNNGRIKQLRSGALQIEQSEESDQGKYECVATNSAGTRYSAPANLYVRELREVRRVPPRFSIPPTNHEIMPGGSVNITCVAVGSPMPYVKWMLGAEDLTPEDDMPIGRNVLELNDVRQSANYTCVAMSTLGVIEAIAQITVK
notes: BacMam vector with C-terminal human IgG1 Fc plus 7x His-tag; also called PTPδ-Fc; PTPδ Ig1–3 (MeA^−)-Fc; source: BacMam baculovirus-transduced HEK293 GnTI- cells, secreted, purified (Ni-NTA, gel filtration); not shown: Fc (human IgG1), C-terminal, kept
Take B5: the dissociation constant (Kd) with human SALM5 LRR-Ig L327N turned out to be 145 nM; in data set [3] it was 282 nM.

B6: human PTPδ Ig1–3 (MeA^−) (domain or fragment, UniProt P23468 21-320, looked up)
chain: ETPPRFTRTPVDQTGVSGGVASFICQATGDPRPKIVWNKKGKKVSNQRFEVIEFDDGSGSVLRIQPLRTPRDEAIYECVASNNVGEISVSTRLTVLREDQIPRGFPTIDMGPQLKVVERTRTATMLCAASGNPDPEITWFKDFLPVDTSNNNGRIKQLRSGALQIEQSEESDQGKYECVATNSAGTRYSAPANLYVRELREVRRVPPRFSIPPTNHEIMPGGSVNITCVAVGSPMPYVKWMLGAEDLTPEDDMPIGRNVLELNDVRQSANYTCVAMSTLGVIEAIAQITVK
notes: Glycans trimmed with Endo H only for crystallization; also called MeA^−/MeB^+; source: BacMam baculovirus-transduced HEK293 GnTI- cells, secreted, purified (Ni-NTA, gel filtration); not shown: His7, C-terminal, kept
With B6, the binding result in data set [4] is on record as “binds”. This molecule came in with a Kd in data set [1] of 99.9 nM.
